Measured values: US20130251707A1

Target: human TNFR1-Fc (human) (UniProt P19438)
Assay: quartz crystal microbalance, TNFR1-Fc immobilized

Sequence of human TNFR1-Fc (human) (P19438 29-211 limits assumed): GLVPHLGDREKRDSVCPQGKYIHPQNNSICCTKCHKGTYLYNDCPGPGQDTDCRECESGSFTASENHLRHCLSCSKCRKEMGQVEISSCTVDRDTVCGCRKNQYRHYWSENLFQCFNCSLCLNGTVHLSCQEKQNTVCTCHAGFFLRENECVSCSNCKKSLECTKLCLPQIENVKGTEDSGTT

Kd: 2.2 nM
fold reduced affinity (against ATROSAB and H398): 10 fold
koff: 0.00076 s⁻¹
kon: 350000 M⁻¹ s⁻¹
B1: scFv IZI-06.1 (scFv, V domains shown, part only)
VH: QVQLVQSGAEVKKPGSSVKVSCKASGYTFTDFYINWVRQAPGQGLEWIGEIYPYSGHAYYNEKFKARVTITADKSTSTAYMELSSLRSEDTAVYYCARWDFLDYWGQGTTVTVSS
VL: DIVMTQSPLSLPVTPGEPASISCRSSQSLLHSNGNTYLHWYLQKPGQSPQLLIYTVSNRFSGVPDRFSGSGSGTDFTLKISRVEAEDVGVYYCSQSTHVPYTFGGGTKVEIKR
modifications: linker and tags not stated
